Results: US20250352667A1

Key:
[1] = molecular target: KEAP1 (wild-type full-length), His-tagged (human) (UniProt Q14145); assay: AlphaScreen; 19.2 nM FLAG-NRF2, 150 nM His-KEAP1; Repeat 1 (same value as in Table 23)
[2] = molecular target: KEAP1 (wild-type full-length), His-tagged (human) (UniProt Q14145); assay: AlphaScreen; 38.4 nM FLAG-NRF2, 150 nM His-KEAP1; Repeat 1 (same value as in Table 23)
[3] = molecular target: KEAP1 (wild-type full-length), His-tagged (human) (UniProt Q14145); assay: AlphaScreen; 9.6 nM FLAG-NRF2, 150 nM His-KEAP1; Repeat 2 (same value as in Table 23)
[4] = molecular target: KEAP1 (wild-type full-length), His-tagged (human) (UniProt Q14145); assay: AlphaScreen, all variants on one plate; average of three conditions ± standard deviation, KEAP1 150 nM; relative to NRF2 (WT) isoform 2
[5] = molecular target: KEAP1 (wild-type full-length), His-tagged (human) (UniProt Q14145); assay: AlphaScreen, all variants on one plate; upper condition (38.4 nM NRF2), KEAP1 150 nM; relative to NRF2 (WT) isoform 2
[6] = molecular target: KEAP1 (wild-type full-length), His-tagged (human) (UniProt Q14145); assay: AlphaScreen; 9.6 nM FLAG-NRF2, 150 nM His-KEAP1; Repeat 1 (same value as in Table 23)
[7] = molecular target: KEAP1 (wild-type full-length), His-tagged (human) (UniProt Q14145); assay: AlphaScreen; 9.6 nM FLAG-NRF2, 150 nM His-KEAP1 (same value as in Table 23)
[8] = molecular target: KEAP1 (wild-type full-length), His-tagged (human) (UniProt Q14145); assay: AlphaScreen; 38.4 nM FLAG-NRF2, 150 nM His-KEAP1; Repeat 2 (same value as in Table 23)
[9] = molecular target: KEAP1 (wild-type full-length), His-tagged (human) (UniProt Q14145); assay: AlphaScreen; 9.6 nM FLAG-NRF2, 150 nM His-KEAP1; against wild-type NRF2 isoform 2 = 100%
[10] = molecular target: KEAP1 (wild-type full-length), His-tagged (human) (UniProt Q14145); assay: AlphaScreen; 19.2 nM FLAG-NRF2, 150 nM His-KEAP1 (same value as in Table 23)
[11] = molecular target: KEAP1 (wild-type full-length), His-tagged (human) (UniProt Q14145); assay: AlphaScreen; 2.4 nM FLAG-NRF2, 150 nM His-KEAP1; Rep 2
[12] = molecular target: KEAP1 (wild-type full-length), His-tagged (human) (UniProt Q14145); assay: AlphaScreen; standard deviation of three conditions; against wild-type NRF2 isoform 2
[13] = molecular target: KEAP1 (wild-type full-length), His-tagged (human) (UniProt Q14145); assay: AlphaScreen; 38.4 nM FLAG-NRF2, 150 nM His-KEAP1 (same value as in Table 23)
[14] = molecular target: KEAP1 (wild-type full-length), His-tagged (human) (UniProt Q14145); assay: AlphaScreen; 38.4 nM FLAG-NRF2, 150 nM His-KEAP1; Repeat 2 (same value as in Table 22)
[15] = molecular target: KEAP1 (wild-type full-length), His-tagged (human) (UniProt Q14145); assay: AlphaScreen; 9.6 nM FLAG-NRF2, 150 nM His-KEAP1; wild type set to 100%
[16] = molecular target: KEAP1 (wild-type full-length), His-tagged (human) (UniProt Q14145); assay: AlphaScreen; 9.6 nM FLAG-NRF2, 150 nM His-KEAP1 (same value as in Table 22)
[17] = molecular target: KEAP1 (wild-type full-length), His-tagged (human) (UniProt Q14145); assay: AlphaScreen; 9.6 nM FLAG-NRF2, 150 nM His-KEAP1; Repeat 2 (same value as in Table 22)
[18] = molecular target: KEAP1 (wild-type full-length), His-tagged (human) (UniProt Q14145); assay: AlphaScreen; 19.2 nM FLAG-NRF2, 150 nM His-KEAP1; Repeat 1 (same value as in Table 22)
[19] = molecular target: KEAP1 (wild-type full-length), His-tagged (human) (UniProt Q14145); assay: AlphaScreen, all variants on one plate; average of three conditions, KEAP1 150 nM; the reference itself
[20] = molecular target: KEAP1 (wild-type full-length), His-tagged (human) (UniProt Q14145); assay: AlphaScreen; 38.4 nM FLAG-NRF2, 150 nM His-KEAP1 (same value as in Table 22)
[21] = molecular target: KEAP1 (wild-type full-length), His-tagged (human) (UniProt Q14145); assay: AlphaScreen; 38.4 nM FLAG-NRF2, 150 nM His-KEAP1; wild type set to 100%
[22] = molecular target: KEAP1 (wild-type full-length), His-tagged (human) (UniProt Q14145); assay: AlphaScreen, all variants on one plate; upper condition (38.4 nM NRF2), KEAP1 150 nM; the reference itself
[23] = molecular target: KEAP1 (wild-type full-length), His-tagged (human) (UniProt Q14145); assay: AlphaScreen; 19.2 nM FLAG-NRF2, 150 nM His-KEAP1 (same value as in Table 22)
[24] = molecular target: KEAP1 (wild-type full-length), His-tagged (human) (UniProt Q14145); assay: AlphaScreen; mean over 9.6, 19.2 and 38.4 nM NRF2; 150 nM His-KEAP1
[25] = molecular target: KEAP1 (wild-type full-length), His-tagged (human) (UniProt Q14145); assay: AlphaScreen; 9.6 nM FLAG-NRF2, 150 nM His-KEAP1; Repeat 1 (same value as in Table 22)
[26] = molecular target: KEAP1 (wild-type full-length), His-tagged (human) (UniProt Q14145); assay: AlphaScreen; 38.4 nM FLAG-NRF2, 150 nM His-KEAP1; Repeat 1 (same value as in Table 22)
[27] = molecular target: KEAP1 (wild-type full-length), His-tagged (human) (UniProt Q14145); assay: AlphaScreen; 19.2 nM FLAG-NRF2, 150 nM His-KEAP1; wild type set to 100%

KEAP1 (wild-type full-length), His-tagged (human), sequence (Q14145 2-624 limits assumed, form in doubt): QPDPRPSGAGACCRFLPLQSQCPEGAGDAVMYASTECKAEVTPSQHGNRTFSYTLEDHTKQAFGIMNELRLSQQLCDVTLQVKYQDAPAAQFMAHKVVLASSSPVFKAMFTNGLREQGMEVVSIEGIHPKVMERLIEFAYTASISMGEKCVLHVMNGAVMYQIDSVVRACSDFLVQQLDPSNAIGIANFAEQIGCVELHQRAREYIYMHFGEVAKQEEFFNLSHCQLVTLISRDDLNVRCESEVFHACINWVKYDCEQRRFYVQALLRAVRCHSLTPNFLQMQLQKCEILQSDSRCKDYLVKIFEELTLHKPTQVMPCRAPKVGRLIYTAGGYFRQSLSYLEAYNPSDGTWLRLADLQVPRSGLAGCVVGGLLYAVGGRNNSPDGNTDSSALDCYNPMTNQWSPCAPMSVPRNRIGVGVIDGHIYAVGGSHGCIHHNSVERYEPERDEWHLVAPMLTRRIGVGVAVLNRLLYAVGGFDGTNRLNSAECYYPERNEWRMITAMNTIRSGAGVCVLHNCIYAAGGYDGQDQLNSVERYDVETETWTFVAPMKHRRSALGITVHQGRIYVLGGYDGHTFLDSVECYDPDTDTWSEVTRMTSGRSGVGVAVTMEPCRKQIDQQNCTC

Q: How did the A-counts [1] turn out when “NRF2 isoform 2 (E63G/E66G full-length), FLAG-tagged” was run?
A: The A-counts was 1700 A-counts.

Q: What about the A-counts [2] of the same substance?
A: The A-counts was 2120 A-counts.

Q: What about the A-counts [3] of the same substance?
A: Its A-counts is 1520 A-counts.

Q: What about the % Disruption in Binding (Reported Values) [4] of the same substance?
A: Its % Disruption in Binding (Reported Values) is 61.7%.

Q: What about the % Disruption in Binding [5] of the same substance?
A: The % Disruption in Binding was 61.9%.

Q: What about the A-counts [6] of the same substance?
A: Its A-counts is 1670 A-counts.

Q: And the S/N [7]?
A: Its S/N is 1.8.

Q: What about the A-counts [8] of the same substance?
A: The A-counts was 1960 A-counts.

Q: And the Binding Percentage (%) [9]?
A: The Binding Percentage (%) was 35.7%.

Q: And the S/N [10]?
A: The S/N was 1.8.

Q: What about the A-counts [11] of the same substance?
A: The A-counts was 1120 A-counts.

Q: What about the Reported Value (standard deviation of reduction in binding) [12] of the same substance?
A: Its Reported Value (standard deviation of reduction in binding) is 10.2%.

Q: And the S/N [13]?
A: Its S/N is 1.8.

Q: For “NRF2 isoform 2 (wild-type full-length), FLAG-tagged”, which A-counts [14] is on record?
A: The A-counts was 3460 A-counts.

Q: And the Binding Percentage (%) [15]?
A: Its Binding Percentage (%) is 100%.

Q: What about the S/N [16] of the same substance?
A: Its S/N is 3.7.

Q: And the A-counts [17]?
A: The A-counts was 2590 A-counts.

Q: And the A-counts [18]?
A: The A-counts was 3480 A-counts.

Q: And the % Disruption in Binding (Reported Values) [19]?
A: The % Disruption in Binding (Reported Values) was 0%.

Q: And the S/N [20]?
A: The S/N was 3.4.

Q: And the Binding Percentage (%) [21]?
A: The Binding Percentage (%) was 100%.

Q: What about the % Disruption in Binding [22] of the same substance?
A: Its % Disruption in Binding is 0%.

Q: And the S/N [23]?
A: The S/N was 4.2.

Q: And the Average Binding [24]?
A: Its Average Binding is 100%.

Q: And the A-counts [11]?
A: The A-counts was 1010 A-counts.

Q: What about the A-counts [25] of the same substance?
A: Its A-counts is 2310 A-counts.

Q: And the A-counts [26]?
A: Its A-counts is 3470 A-counts.

Q: What about the Binding Percentage (%) [27] of the same substance?
A: The Binding Percentage (%) was 100%.
